Sequences and labels used below:
B1: Chromodomain-helicase-DNA-binding protein 4, residues 444 to 496; numbered along this chain, Q14839 (parent)
chain: EDDHHMEFCRVCKDGGELLCCDTCPSSYHIHCLNPPLPEIPNGEWLCPRCTCP

± gives the uncertainty stated by the source.

Variants of B1 are the subject of this data set. Put plainly: abundance fitness (aPCA) (normalised: wild type 0, dead -1); higher = more abundant; growth selection in yeast, the domain comes from the species named. The conditions noted are these: Homo sapiens.
For C47Y, the abundance fitness was -0.78 ± 0.057. Next, C47F: -0.803 ± 0.055; C47V: -0.605 ± 0.055; C47Q: -0.627 ± 0.074. C47H: the abundance fitness is -0.36 ± 0.052. With C47N the figure was -0.559 ± 0.087; with C47S, -0.598 ± 0.056; with C47R, -0.664 ± 0.041. Consider C47E, for which the abundance fitness was -0.606 ± 0.094.

With C47T, the abundance fitness was -0.732 ± 0.063. Next, C47W: -0.766 ± 0.056. Next, C47A: -0.804 ± 0.074; C47I: -0.697 ± 0.082; C47K: -0.503 ± 0.074.

With C47G, the abundance fitness is -0.652 ± 0.046. With C47L the figure was -0.639 ± 0.047; with C47P, -0.552 ± 0.043.

For E39H, the abundance fitness is -0.132 ± 0.058. As for E39Y, the abundance fitness is -0.201 ± 0.068. As for E39G, the abundance fitness is -0.056 ± 0.06.

Turning to E39M, the abundance fitness was -0.095 ± 0.071. For E39K, the abundance fitness came to 0.121 ± 0.08. As to E39A, the abundance fitness turned out to be 0.011 ± 0.073.

E39I: the abundance fitness was -0.026 ± 0.045.

With E39S, the abundance fitness is 0.021 ± 0.044.

Consider E39N, for which the abundance fitness turned out to be 0.026 ± 0.058. As to E39V, the abundance fitness was -0.025 ± 0.05. Regarding E39C, the abundance fitness is -0.178 ± 0.057. On to E39W, for which the abundance fitness is -0.35 ± 0.086. For the variant E39F, the abundance fitness was -0.056 ± 0.063. With E39D the figure was -0.292 ± 0.099. Consider E39T, for which the abundance fitness turned out to be 0.025 ± 0.051. Next, E39Q: -0.052 ± 0.074. As for E39R, the abundance fitness was -0.09 ± 0.057. In the case of E39L, the abundance fitness was -0.189 ± 0.048. With E39P the figure was -0.152 ± 0.049; with G43A, -0.079 ± 0.043; with G43I, -0.144 ± 0.047.

As for G43K, the abundance fitness was determined as 0.03 ± 0.07. As to G43P, the abundance fitness was -0.287 ± 0.058. In the case of G43F, the abundance fitness is -0.188 ± 0.058. G43Q: the abundance fitness was -0.032 ± 0.074. With G43D, the abundance fitness is -0.151 ± 0.057.

In the case of G43L, the abundance fitness is -0.201 ± 0.049. With G43M, the abundance fitness was -0.195 ± 0.067. G43E: the abundance fitness was -0.07 ± 0.047. With G43N the figure was -0.068 ± 0.078. For the variant G43H, the abundance fitness was -0.13 ± 0.067.

With G43C, the abundance fitness was -0.16 ± 0.054. With G43R the figure was -0.044 ± 0.059; with G43V, -0.075 ± 0.053. G43S: the abundance fitness was -0.061 ± 0.05. Regarding C50Y, the abundance fitness was -1.02 ± 0.13. Consider C50K, for which the abundance fitness was -0.58 ± 0.1. With C50D the figure was -0.633 ± 0.05; with C50W, -1.11 ± 0.1; with C50Q, -0.769 ± 0.08.

With C50G, the abundance fitness was -0.727 ± 0.059. C50N: the abundance fitness is -0.46 ± 0.092.

On to C50S, for which the abundance fitness is -0.622 ± 0.054.

As to C50T, the abundance fitness was -0.78 ± 0.051.

As to C50V, the abundance fitness was -0.791 ± 0.044. Next, C50I: -1.08 ± 0.12; C50H: -0.286 ± 0.05. With C50M the figure was -0.986 ± 0.052; with C50F, -0.895 ± 0.056. With C50P the figure was -0.755 ± 0.047. Regarding C50L, the abundance fitness was -0.845 ± 0.043. With C50E the figure was -0.708 ± 0.095.

On to E44T, for which the abundance fitness was -0.122 ± 0.063. With E44C the figure was -0.21 ± 0.068; with E44M, -0.084 ± 0.071; with E44G, 0.03 ± 0.056. On to E44H, for which the abundance fitness is -0.057 ± 0.061. Next, E44F: -0.152 ± 0.08; E44A: -0.07 ± 0.051; E44S: -0.018 ± 0.042. Regarding E44L, the abundance fitness is -0.024 ± 0.05.

In the case of E44D, the abundance fitness is -0.156 ± 0.079. With E44V, the abundance fitness was -0.143 ± 0.055. For the variant E44I, the abundance fitness is -0.119 ± 0.076. Next, E44R: -0.001 ± 0.042; E44N: 0.095 ± 0.074. Regarding E44Q, the abundance fitness is -0.104 ± 0.059. For the variant E44W, the abundance fitness was -0.413 ± 0.076. Next, E44K: 0.064 ± 0.073; C52F: -0.358 ± 0.23. On to C52I, for which the abundance fitness was -0.189 ± 0.18. As for C52G, the abundance fitness came to 0.294 ± 0.081. Turning to C52D, the abundance fitness is -0.218 ± 0.17. Turning to C52H, the abundance fitness is 0.096 ± 0.16. With C52L the figure was 0 ± 0.11. Next, C52E: 0.489 ± 0.12. Next, N42D: -0.085 ± 0.054; N42S: -0.063 ± 0.05. N42P: the abundance fitness was -0.065 ± 0.055. Next, N42K: 0.081 ± 0.063; N42Y: -0.197 ± 0.049; N42R: -0.022 ± 0.053. With N42H the figure was -0.094 ± 0.055. Next, N42M: -0.127 ± 0.06. On to N42L, for which the abundance fitness is -0.077 ± 0.047. Next, N42C: -0.061 ± 0.054; N42Q: 0.005 ± 0.069; N42F: -0.219 ± 0.053. As for N42G, the abundance fitness was 0.038 ± 0.052. For the variant N42V, the abundance fitness amounted to 0.032 ± 0.044. N42I: the abundance fitness is -0.096 ± 0.055.

On to N42A, for which the abundance fitness was 0.037 ± 0.06. Next, N42W: -0.253 ± 0.058; N34T: -0.014 ± 0.05; N34I: -0.075 ± 0.051.

Regarding N34C, the abundance fitness is -0.155 ± 0.067. Next, N34D: -0.114 ± 0.09; N34E: -0.145 ± 0.091. With N34G the figure was -0.345 ± 0.075. As for N34V, the abundance fitness was -0.073 ± 0.061.

As to N34M, the abundance fitness was -0.127 ± 0.068.

For the variant N34F, the abundance fitness was -0.158 ± 0.042.

For the variant N34A, the abundance fitness is -0.08 ± 0.057.

As to N34S, the abundance fitness worked out at 0.018 ± 0.048. With N34R the figure was -0.205 ± 0.053. Next, N34H: -0.262 ± 0.069; N34K: 0.052 ± 0.071; N34L: -0.197 ± 0.046. Take N34P: the abundance fitness is -0.219 ± 0.054. Next, P48Y: -0.567 ± 0.06; P48F: -0.717 ± 0.078; P48D: -0.102 ± 0.05.

Consider P48M, for which the abundance fitness was -0.363 ± 0.072.

For P48H, the abundance fitness was -0.278 ± 0.055.

As for P48A, the abundance fitness is -0.155 ± 0.046. With P48T the figure was -0.27 ± 0.047; with P48N, -0.54 ± 0.081; with P48G, -0.284 ± 0.053. With P48E the figure was -0.042 ± 0.059. As for P48W, the abundance fitness was -0.349 ± 0.051. With P48C the figure was -0.815 ± 0.079. Next, P48K: -0.397 ± 0.051. Turning to P48R, the abundance fitness is -0.352 ± 0.042. With P48I the figure was -0.941 ± 0.12. As to P48S, the abundance fitness is -0.21 ± 0.045. Next, P48V: -0.504 ± 0.051; P48L: -0.622 ± 0.042; R49E: -0.108 ± 0.079. On to R49Y, for which the abundance fitness was -0.201 ± 0.086. In the case of R49D, the abundance fitness turned out to be 0.145 ± 0.055. As to R49S, the abundance fitness is -0.095 ± 0.047.

For R49N, the abundance fitness was found to be 0.04 ± 0.063. Turning to R49M, the abundance fitness is -0.101 ± 0.054.

For the variant R49V, the abundance fitness came out at 0.006 ± 0.051.

As for R49Q, the abundance fitness is 0.034 ± 0.043. Regarding R49A, the abundance fitness came to 0.019 ± 0.055. With R49L the figure was -0.101 ± 0.044; with R49H, 0.047 ± 0.053; with R49T, 0.043 ± 0.047. As for R49G, the abundance fitness was determined as 0.069 ± 0.041. Take R49W: the abundance fitness is -0.132 ± 0.051. Next, R49I: 0.016 ± 0.072; R49P: -0.187 ± 0.049; R49F: -0.089 ± 0.06. With C32S, the abundance fitness is -0.821 ± 0.052. As to C32R, the abundance fitness is -0.857 ± 0.057. Next, C32Q: -0.369 ± 0.085. Next, C32W: -1.05 ± 0.1; C32V: -0.914 ± 0.063; L37N: -0.244 ± 0.056.

These data come from the Human Domainome abundance scans (Beltran et al. 2025).
